# Assay results published in the DeepSol protein solubility set.
# Assay: soluble on expression in E. coli; label from the status in PepcDB or PDB records
row,Sequence,soluble on expression in E. coli
1,MLYAATRATLKKEFGGGHIKDEVFGTVKEDVSLHGYKKYLLSQSSPAPLTAAEEELRQIKINEVQTDVGVDTKHQTLQGVAFPISREAFQALEKLNNRQLNYVQLEIDIKNEIIILANTTNTELKDLPKRIPKDSARYHFFLYKHSHEGDYLESIVFIYSMPGYTCSIRERMLYSSCKSRLLEIVERQLQMDVIRKIEIDNGDELTADFLYEEVHPKQHAHKQSFAKPKGPAGKRGIRRLIRGPAETEATTD,soluble
2,MSLYSSENDYIILEDKTATGKKRDWKGKKRRTNLMAEHYEALQSKTGIPYYGKKAEKLCSCAECLSFKRDPETGKLKLYQAQFCKVRLCPMCAWRRSLKIAYHNKLIVEEANRQYGCGWIFLTLTVRNVEGDGLKPMIADMMKGWNRLFGYKRVKVATLGYFRALEITKNHEEDTYHPHFHVLLPVKKSYFTHNYIKQSEWTSLWKRAMKLDYTPIVDIRRVKGRAKIDAEQIESDVREAMMEQKAVLEISKYPVKDTDVVRGNKVTEDNLNTVFYLDDALSARRLIGYGGILKEIHKELNLGDAEDGDLVKIEEEDDEVANEAFEVMAYWHPGIKNYIIREGHHHHHH,not soluble
3,MSELLEKAERLKTASQTLAMLSAEEKNAALEQIAQTLDRERAFILQENEKDMAQGCKQGLSPALLDRLQLTNERLDQIIDGVRQVASLPDPVGEIIAEWTRPNGLRIQTVRVPLGVIGMVYEARPNVTVDAASLCLKTGNAVLLRGSTSALHSNKALVRVMKEALRTTTVPETAIELLEDTSRETAQHMFRLNEYLDVLIPRGGAGLIRSVVENATVPVLETGVGNCHIFIDESAERQMAIDIVLNAKLQRPSVCNAVETVLIHERWPYADDLLETLHARGVELRGDQRLASAHPFVSEATEDDWYTEYLAPILAVKLVADVDEAIGHIRRYGTKHSEAIITENEANVRRFFQGVDAAVLYHNASTRFTDGEQFGYGAEIGISTQKLHARGPMGLVAITTTKSLVYGTGQIRE,not soluble
4,MGSDKIHHHHHHAVVPGKKDFINENTPGSKVVQTPEGAWFKDDKNRQEWSITSEDGLRLKAIYLPADKKSNRTVIMAHGYMGSAETMSVFAKMYHDWGYNVLAPDARGHGKSQGDYIGFGWPDRKDYVQWIEKVLTENGQQEQITLYGVSMGAATVMMTSGEKLPDNVKAIVEDCGYSTVNQELQYQLKELFNLPSFPLVNVTSGITKLRAGYFFGEASAVKQLQKNHLPMLFIHGENDTFVPFSMLDEVYNATQGPKEKYVVPGAEHAKAYNKNPEKYKETVAAFLDKYIK,not soluble
5,MSQNHVIELANTLKQRPIVCDYTGGRFRLTNEGLTYIGIDRDGTPLPPRWICAPLHIVAKTRDAQSGEWGRLLEWQDDDGITHQWAMPLALLQGDASDVRRELARLGLSISPHRTARDLLASYLQVFPVDARARCVDKLGWHGDVFVTASQCIGQSTEKIVFQNTNAIEPAMSIKGSVDKWRDSIGRLASGNSRLVFAISVALAPVLAKIVGEDSGGFHFRGASSSGKSTALSLAASVWGNPQSYCRLWRSTTNGLEGLAALHNDGLLILDELSQMDPREAGEAAYLLANGQGKTRASRTGTVRQSSRWSLFFLSAGEESLTALMAKSGQRINAGQEIRLADIEADAGCQMGIFETIHDQLSPASMALSLKKYSSGYHGAIGRAWLNQVVANRQTISRFITDTIQSFVDIVIQPDATGQIIRVARRFALVAAAGELASQFGLTGWKKGESFHAAKTCFIAWQDAFGVDGHREDRAIMAQVRAFFESHGASRFDNVNSPNNDKILNRAGFYHTDGEGFRIYMVLTETYKNELCKGFDQRTVTRVLLQAGWLKPASDGKASHKPRIKGVGTPRLYVFTGKIWGGELEHHHHHH,soluble
6,MSLAKASAESLGGTVASEESIASYIGAGILSSGGNAVDAAVATSLALTVLIPHLGGVGGDFFMLYRSPEGRVFFVNGSGFAPRRLTREEVLGRGLQEIPESGPLSPTTPGYLAGLYHSWRSFGTMEWASLVKPARLLASRGFPLPPSTARSLKLRRECLEADPGSREAVLKTLPREEGSPARLPGLAALLSGVEEDPLYLYQGEPAEALEEYLASIGGVMGAEDLAGTRGFTAEPLYSEYRGWKVWEMPPNTQGVTTLHLLMLLEEEELPEPFSPERVDILAGLARMAYSIRDRYVGDPRYMPIDPHELARKETLLKLLGQEESNGSKATGDTTFFAVADREGGIVAGIQSLFYPWGSCVTEPRFQVTLNNRARGFTLKEGLPSTLRPGAFPLHTLSSVIMEQRERVIALGASGGHLRPQQHALFVTNIVDYGMNVLDAINAPRAVWDPGRGEILCEEGFGCRPSWRKVERIGVANAVEVAGSVKRGYTDMRGDGLPAVEGHHHHHH,not soluble
7,MKAEIISVGTEILLGDIVNTNSQFLAKELASLGIEVYHQSTVGDNKQRLLECFDESLKRSDFVITTGGLGPTGDDMTKETAAEYFGQKLELHKPSLEVLESFFVKTGKKMAENNMKQVYFPKDAIVLKNNNGTAPGAILKKDGKFIIVLPGPPREMKAMFNESVKPYLQQFTNEMLVSKTLRLYGIGESNLELEILDIINEQTNPTVALYAKELEVTIRITAKAENEREAFKLIKPVEEKIKSRVGKYVYTEGDISISEGETALEDAVSKLLVEKNLTIAVAESCTGGLVSSSLINYPGISSVFLEGCVTYSNDSKMKRLGVKRETLEEFGAVSEQTAIEMAEGVAKGLKANIGISTTGVAGPGGGTKEKPVGLVYTAIYINGKTIVKKNIFNGDRRKIRLRATRDLLNELRIQLEKL,not soluble
8,MKEIYLPLHHGKAPHWLLSRMKKLAKPIVKLIVLEYGEREFLERLSNPIFFQSLSNVLGFDWNSSGVTTVLTGVLKAVINNEEFDIRIAGGKGGNALKTPEEIMNYSEQIGADGEKLVEFSRLAAKADNAALIDGYSLYHHAVIFTPRYFTVIQQGMNETERMARRYHWNVYSSVPELENVHEGIITERRENEVVNMLSDISRDAKRLCVDIVRDGSFRRDYERMISVLRWRKGLRVPKKLDWKVVERAYNLQPERFEELLLIRGFGRETIRALALVAEIIYNTEYDKTDPAKYCFAVGGKDGVPFPVRRDIYDEIIEFMRETVKQAEIGDFEKKKMLERLSRYGCDCQERRD,soluble
9,RGKGKDIVMNPLSFGEFVKVARPDIYSKLPRIKRITKVKECSKLRPWREELYDLFILYLKSGGFPRAVKDILEGESIAELHEPTWNSIQKFYGPL,not soluble
10,DDAENIEYKVSISGTSVELTCPLDSDENLKWEKNGQELPQKHDKHLVLQDFSEVEDSGYYVCYTPASNKNTYLYLKARVGSADDAKKDAAKKDDAKKDDAKKDGSQTNKAKRALEVLEAEDKVILKCNSSITLLQGTAGQEVSDNKTLNLGKRIEDPRGMYQCGENAKSFTLQVYYRM,soluble
11,MGELTDALLGKGALKTRFGSLLGQGDWGGVRVSQVEVRWVIFCLLHWLHVNLPVTEYLALDVLFPLAIVQKHSIL,not soluble
12,MGSDKIHHHHHHMKTNLLNYDLQGLTRHFADMGEKPFRAKQVMRWMHQSGAQNFNEMTDLAKSLRHKLNEQAGIEIPKLMMSQKSSDGTRKWLLDVGTGNGVETVFIPESDRGTLCISSQVGCALECTFCSTGRQGFNRNLTAAEIIGQLWWANKAMGVTPKNERVISNVVMMGMGEPMANFDNVVTALSIMLDDHGYGLSRRRVTVSTSGMVPQMDRLRDVMPVALAVSLHASNDEVRNQIVPLNKKYPLKELMAACQRYLVKAPRDFITFEYVMLDGINDKAQHARELIELVTDVPCKFNLIPFNPFPNSGYERSSNENIRVFRDILQQAGFVVTVRKTRGDDIDAACGQLAGQVQDKTRRQQKWQQILIGQQG,not soluble
13,MPTYKLTYFNARGYAEAARILFHLADVPFEDFRMTHGDGTWEKLKDGAPFGQVPYLTVDGFDIPQSAAIIRYLANKFGYAGKTPEEQVWADAIVDQFKDFMGSFRERIMAHFAGKSQEEIAKITSEVVIPARDSYFKILNGLLEKSKSGFLVGDSITFADIVISENITTLEKNQLFVASEQPNLAALREKVYAIPAIRKWVEARPDTQY,not soluble
14,VPGILMCEIFIRANQRSYSVQARSLRLHGVATSVRLEQLFWDVLEEIAARDGMRVTQLIERLYDELVQYRGEAANFTSFLRVCCLRYQVLQAEGRIPADATVPIRSLDAQAVLRGLPANLYDSR,not soluble
15,MAGTGLLALRTLPGPSWVRGSGPSVLSRLQDAAVVRPGFLSTAEEETLSRELEPELRRRRYEYDHWDAAIHGFRETEKSRWSEASRAILQRVQAAAFGPGQTLLSSVHVLDLEARGYIKPHVDSIKFCGATIAGLSLLSPSVMRLVHTQEPGEWLELLLEPGSLYILRGSARYDFSHEILRDEESFFGERRIPRGRRISVICRSLPEGMGPGESGQPPPACLEHHHHHH,soluble
16,MRIGLFTDTYFPQVSGVATSIRTLKEELEKEGHEVYIFTTTDRDVKRFEDPTIIRLPSVPFVSFTDRRVVYRGLISSYKIAKHYNLDIIHTQTEFSLGLLGKMIGKALRIPVVHTYHTQYEDYVSYIANGKIIRPSMVKPLLRGYLKDLDGVICPSRIVLNLLEGYEVTIPKRVIPTGIPLEKYIRDDITAEEVTNLKAELGIAGDETMLLSLSRISYEKNIQAIINQMPAILAENAKIKLIIVGNGPYLQDLKHLAMQLEVDKHVTFTGMVPHDKVALYYKACDFFISASTSETQGLTYIESLASGTPIIAHGNPYLDDVVTDKMFGTLYYAETDLTDAIIDAILKTPVMDKRLLAKKRYEISAQHFGKSIYTFYLDTLIARNSKEAQKLSLYLNHSGKSSSLKLVQGAIHLPKRAAKVTAITSVKVVKAPIKLVHAIKDFLD,not soluble
17,MGSDKIHHHHHHMAYQLRSAALTNYVEVARAVGLDPYQQLRAARISRSVLLDPDIRIPAQAVSRLLESSANAAGIQDFGLRMAETRQLSNLGPLAFAMRQEPTLRRALESMARYLRLQNEAIAMRIEEAEGLVMLRQEALTGVAGSLRQSTDLVVGVLYRVLALVLGPKWRPRSICFSHAAPGSTAMYLRLFGMPVLFNQEFDGIICVASDLEVPLPSYDPTMARQVQQYLDTMLAQSDATISDKVRRLVLALLPSGACTIERVAQHMGVDVRTVQRRLANYDETFSAIVTATRVDLATRYLENRERPLSEVATLLGFGSLSAFSRWFGGHFGCSVSKWRAKGFAKAVKKEGAGRSH,not soluble
18,MAIKVGINGFGRIGRSFFRASWGREEIEIVAINDLTDAKHLAHLLKYDSVHGIFKGSVEAKDDSIVVDGKEIKVFAQKDPSQIPWGDLGVDVVIEATGVFRDRENASKHLQGGAKKVIITAPAKNPDITVVLGVNEEKYNPKEHNIISNASCTTNCLAPCVKVLNEAFGVEKGYMVTVHAYTNDQRLLDLPHKDFRRARAAAINIVPTTTGAAKAIGEVIPELKGKLDGTARRVPVPDGSLIDLTVVVNKAPSSVEEVNEKFREAAQKYRESGKVYLKEILQYCEDPIVSTDIVGNPHSAIFDAPLTQVIDNLVHIAAWYDNEWGYSCRLRDLVIYLAERGL,soluble
19,MRSHNLFGDMCEAFMTKYVMTELRPKTQTLYKSTFNKYVTPYKNIDIERYKYTDWIAYFDWVKKESSSANAGSVLKRFKAVANWAKARGQIKHSHLIDIPIKLEHHHHHH,not soluble
20,MGSDKIHHHHHHMITDENKKLAQWAMDYALKNGCQAAKVLLYSSSNTSFELRDAKMDRLQQASEGGLSLSLYVDGRYGSISTNRLNRKELETFIKNGIDSTRYLAKDEARVLADPSRYYKGGKPDLKLYDAKFASLNPDDKIEMAKAVAEEALGKDERIISVGSSYGDGEDFAYRLISNGFEGETKSTWYSLSADITIRGEGEARPSAYWYESSLYMNDLIKKGIGQKALERVLRKLGQKKVQSGKYTMVVDPMNSSRLLSPMISALNGSALQQKNSFLLNKLNEKIASDRLTLTDEPHLVKASGARYFDNEGIATERRSIFDKGVLNTYFIDTYNAKKMGVDPTISGSSILVMETGDKNLDGLIAGVEKGILVTGFNGGNNNSSTGDFSYGIEGFLIENGKLTQPVSEMNVTGNLITLWNSLVATGNDPRLNSSWRIPSLVFEGVDFSGL,soluble
